This is an account of results in patent US20110190483, “Stimulus-Responsive Apta Chelamers” (The Administrators of the Tulane Educational Fund, published 2011).

For orientation: Kd means the free concentration of one partner at which half of the binding sites on the other are occupied at equilibrium, for simple one-to-one binding.

What all share (details): tags: Sigma Aldrich, from bovine pancreas; label: fluorescein on 5'-terminal dT; intramolecular antiparallel G4
For data set [1], the target named is T1, trypsin (Bos taurus, UniProt P00760 P00760:24-246). The data set can be described thus: FP; 25 mM KCl, 200 mM NaCl, 25 mM Hepes pH 7.4, 25 C; iodophenylthiourea arm only. As for the experimental part:
(§1) The preformed quadruplexes were then incubated with increasing concentrations of trypsin at 25° C. (25 mM KCl, 200 mM NaCl, 25 mM Hepes, pH 7.4) for 30 min. Preliminary fluorescence anisotropy studies were conducted to ascertain that equilibrium was reached after 30 min and that there was no significant quenching of the fluorescein emission. The anisotropy associated with the fluorescein emission was followed at 525 nm (excitation at 495 nm). The resultant binding isotherms (FIG. 14) were fitted using non-linear regression to a 1:1 binding stoichiometry. […] This dissociation constant is attributed to non-specific interactions between bovine trypsin and ODN 4, since trypsin (pI=10.5) is positively charged at pH=7.4 and thus can potentially associate with the negatively charged DNA backbone. Support for such non-specific interactions comes from incubation of trypsin with ODN 4 where the concentration of salts were decreased to only 5 mM KCl, 25 mM Hepes, pH 7.4 (see, e.g., FIG. 23).
(§2) Immediately prior to each fluorescence polarization experiment, fresh stock solutions of trypsin were made in Hepes buffer (20 mM KCl, 200 mM NaCl, 25 mM Hepes, pH 7.4). Concentration of the trypsin in the stock solutions were determined using ultra-violet absorbance at 280 nm (ε=37669 M⁻¹cm⁻¹).

Data set [2] deals with T1, trypsin. The data set can be described thus: FP; 25 mM KCl, 200 mM NaCl, 25 mM Hepes pH 7.4, 25 C; benzamidine arm only. As for the experimental part:
as §1, §2

The target of data set [3] is T1, trypsin. The data set can be described thus: FP; low salt: 5 mM KCl, 25 mM Hepes pH 7.4; +/-0.3e-6. On the procedure:
The results of FIG. 23 show fluorescence anisotropy titrations of AC 1 and negative control ODN 4 (2 nM), first exposed to quadruplex forming conditions followed by incubation with increasing concentrations of trypsin. These experiments were conducted under low-salt conditions (5 mM KCl, 25 mM Hepes, pH 7.4. The raw data is depicted by circles for AC 1 and diamonds (♦) for ODN 4. The lines represent non-linear fits to equation 2 (R²=0.99 for AC 1 and 0.98 for ODN 4).
These findings are consistent with the fact that bovine trypsin is positively charged at pH=7.4 (pI of bovine trypsin is=10.5) and thus can potentially associate with the negatively charged ODN backbone, through non-specific interactions, under low-salt conditions.

In data set [4] the target is T1, trypsin. The data set can be described thus: FP; preformed quadruplex, 25 mM KCl (20 mM elsewhere), 200 mM NaCl, 25 mM Hepes pH 7.4, 25 C; binding through small-molecule arms. On the procedure:
as §1, §2

T1 sequence (P00760 24-246, one chain of several): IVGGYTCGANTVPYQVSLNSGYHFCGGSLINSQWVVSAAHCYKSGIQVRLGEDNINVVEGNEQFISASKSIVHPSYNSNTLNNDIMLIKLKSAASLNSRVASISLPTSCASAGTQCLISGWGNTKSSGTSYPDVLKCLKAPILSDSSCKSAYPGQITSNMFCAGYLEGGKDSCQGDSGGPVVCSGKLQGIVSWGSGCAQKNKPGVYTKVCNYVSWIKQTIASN

In turn, TTGGTTGGTGTGGTTGGT (structured_DNA, 3'-iodophenylthiourea arm via C6 spacer, no 5' arm) [ODN 3 (Formula 5)] came in with a Kd with trypsin [1] of 90 µM. TTGGTTGGTGTGGTTGGT (structured_DNA, 5'-benzamidine arm via C10 spacer, no 3' arm) [ODN 2 (Formula 4)] displayed a Kd in the data set with trypsin [2] of 29 µM.

For TTGGTTGGTGTGGTTGGT (structured_DNA, 5'-benzamidine arm via C10 spacer, 3'-iodophenylthiourea arm via C6 spacer) [AC 1 (ODN 1, Formula 3)], the figures for the Kd in the data set with trypsin [3] and with trypsin [4] were 2.8 µM and 0.81 µM, respectively.
